Data set [1] concerns HeLa Kyoto. Briefly: thermal stability score vs G1/S (z-score of summed log2 fold changes over temperatures); higher = more thermally stable than in G1/S.
Data set [2] concerns HeLa Kyoto. The data set can be described thus: melting temperature (median over replicates), in situ; higher = more thermally stable.
Data set [3] deals with HeLa Kyoto. Briefly: solubility in G1/S (NP-40 vs SDS abundance) (log2 ratio); higher = more soluble. As to conditions: cell cycle stage: G1/S.
The test system of data set [4] is HeLa Kyoto. Briefly: solubility change mitosis vs G1/S (difference of NP-40 vs SDS log2 ratios) (log2 ratio difference); higher = more soluble in mitosis.
Where [5] appears, read: cell cycle stage: early G1 (4.5 h after nocodazole release).
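Wherever melting temperature (median over replicates), in situ is given: HeLa Kyoto cells synchronized by double thymidine or nocodazole block, proteins quantified by TMT10plex mass spectrometry, three independent biological replicates.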
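Wherever solubility change mitosis vs G1/S (difference of NP-40 vs SDS log2 ratios) is given: synchronized HeLa Kyoto cells (double thymidine block for G1/S, nocodazole release for mitosis), protein amounts in NP-40 versus SDS lysates quantified by mass spectrometry, three biological replicates.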
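Wherever solubility in G1/S (NP-40 vs SDS abundance) is given: HeLa Kyoto cells arrested at G1/S by double thymidine block, proteins quantified by TMT10plex mass spectrometry in mild NP-40 versus SDS extracts, three biological replicates.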
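Wherever thermal stability score vs G1/S (z-score of summed log2 fold changes over temperatures) is given: synchronized HeLa Kyoto cells, proteins quantified by TMT10plex mass spectrometry, three biological replicates, mitosis taken 0.5 h after nocodazole release, G1/S directly after double thymidine block.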

As to “MSSRKSKSNSLIHTECLSQVQRILRERFCRQSPHSNLFGVQVQYKHLSELLKRTALHGESNSVLIIGPRGSGKTMLINHALKELMEIEEVSENVLQVHLNGLLQINDKIALKEITRQLNLENVVGDKVFGSFAENLSFLLEALKKGDRTSSCPVIFILDEFDLFAHHKNQTLLYNLFDISQSAQTPIAVIGLTCRLDILELLEKRVKSRFSHRQIHLMNSFGFPQYVKIFKEQLSLPAEFPDKVFAEKWNENVQYLSEDRSVQEVLQKHFNISKNLRSLHMLLMLALNRVTASHPFMTAVDLMEASQLCSMDSKANIVHGLSVLEICLIIAMKHLNDIYEEEPFNFQMVYNEFQKFVQRKAHSVYNFEKPVVMKAFEHLQQLELIKPMERTSGNSQREYQLMKLLLDNTQIMNALQKYPNCPTDVRQWATSSLSWL [ORC4]”, the thermal stability score in the data set with HeLa Kyoto [1] (setting [5]) came to 1.97; in the data set on HeLa Kyoto [1] (cell cycle stage: mitosis) it was 2.38. Further, the melting temperature in the data set on HeLa Kyoto [2] (cell cycle stage: G1/S) amounted to 48.8 °C; in the data set with HeLa Kyoto [2] (cell cycle stage: mitosis), 49.6 °C. Moreover, the “solubility in G1/S (log2)” value in the data set on HeLa Kyoto [3] is 0.194. Also, the “solubility change mitosis (log2)” value in the data set with HeLa Kyoto [4] was -0.248.
“MSSSHFASRHRKDISTEMIRTKIAHRKSLSQKENRHKEYERNRHFGLKDVNIPTLEGRILVELDETSQGLVPEKTNVKPRAMKTILGDQRKQMLQKYKEEKQLQKLKEQREKAKRGIFKVGRYRPDMPCFLLSNQNAVKAEPKKAIPSSVRITRSKAKDQMEQTKIDNESDVRAIRPGPRQTSEKKVSDKEKKVVQPVMPTSLRMTRSATQAAKQVPRTVSSTTARKPVTRAANENEPEGKVPSKGRPAKNVETKPDKGISCKVDSEENTLNSQTNATSGMNPDGVLSKMENLPEINTAKIKGKNSFAPKDFMFQPLDGLKTYQVTPMTPRSANAFLTPSYTWTPLKTEVDESQATKEILAQKCKTYSTKTIQQDSNKLPCPLGPLTVWHEEHVLNKNEATTKNLNGLPIKEVPSLERNEGRIAQPHHGVPYFRNILQSETEKLTSHCFEWDRKLELDIPDDAKDLIRTAVGQTRLLMKERFKQFEGLVDDCEYKRGIKETTCTDLDGFWDMVSFQIEDVIHKFNNLIKLEESGWQVNNNMNHNMNKNVFRKKVVSGIASKPKQDDAGRIAARNRLAAIKNAMRERIRQEECAETAVSVIPKEVDKIVFDAGFFRVESPVKLFSGLSVSSEGPSQRLGTPKSVNKAVSQSRNEMGIPQQTTSPENAGPQNTKSEHVKKTLFLSIPESRSSIEDAQCPGLPDLIEENHVVNKTDLKVDCLSSERMSLPLLAGGVADDINTNKKEGISDVVEGMELNSSITSQDVLMSSPEKNTASQNSILEEGETKISQSELFDNKSLTTECHLLDSPGLNCSNPFTQLERRHQEHARHISFGGNLITFSPLQPGEF [DLGAP5]”: the thermal stability score stood at 0.319 in the data set on HeLa Kyoto [1] (setting [5]) and 1.63 in the data set on HeLa Kyoto [1] (cell cycle stage: mitosis). Further, the melting temperature with HeLa Kyoto [2] (cell cycle stage: G1/S) stood at 49.6 °C; in the data set with HeLa Kyoto [2] (cell cycle stage: mitosis), 49.5 °C. Besides, the “solubility in G1/S (log2)” value with HeLa Kyoto [3] came to 0.097. Also, the “solubility change mitosis (log2)” value with HeLa Kyoto [4] is -0.122.
As to “MSSSPWEPATLRRVFVVGVGMTKFVKPGAENSRDYPDLAEEAGKKALADAQIPYSAVDQACVGYVFGDSTCGQRAIYHSLGMTGIPIINVNNNCATGSTALFMARQLIQGGVAECVLALGFEKMSKGSLGIKFSDRTIPTDKHVDLLINKYGLSAHPVAPQMFGYAGKEHMEKYGTKIEHFAKIGWKNHKHSVNNPYSQFQDEYSLDEVMASKEVFDFLTILQCCPTSDGAAAAILASEAFVQKYGLQSKAVEILAQEMMTDLPSSFEEKSIIKMVGFDMSKEAARKCYEKSGLTPNDIDVIELHDCFSTNELLTYEALGLCPEGQGATLVDRGDNTYGGKWVINPSGGLISKGHPLGATGLAQCAELCWQLRGEAGKRQVPGAKVALQHNLGIGGAVVVTLYKMGFPEAASSFRTHQIEAVPTSSASDGFKANLVFKEIEKKLEEEGEQFVKKIGGIFAFKVKDGPGGKEATWVVDVKNGKGSVLPNSDKKADCTITMADSDFLALMTGKMNPQSAFFQGKLKITGNMGLAMKLQNLQLQPGNAKL [SCP2]”, the values for the thermal stability score in the data set with HeLa Kyoto [1] (setting [5]) and with HeLa Kyoto [1] (cell cycle stage: mitosis) were -1.44 and -2.06, respectively. Besides, the melting temperature was 54.5 °C in the data set on HeLa Kyoto [2] (cell cycle stage: G1/S) and 54.4 °C in the data set with HeLa Kyoto [2] (cell cycle stage: mitosis). The “solubility in G1/S (log2)” value in the data set with HeLa Kyoto [3] was found to be 0.587. In the data set with HeLa Kyoto [4], the “solubility change mitosis (log2)” value was found to be 0.135.
Turning to “MSSVQQQPPPPRRVTNVGSLLLTPQENESLFTFLGKKCVTMSSAVVQLYAADRNCMWSKKCSGVACLVKDNPQRSYFLRIFDIKDGKLLWEQELYNNFVYNSPRGYFHTFAGDTCQVALNFANEEEAKKFRKAVTDLLGRRQRKSEKRRDPPNGPNLPMATVDIKNPEITTNRFYGPQVNNISHTKEKKKGKAKKKRLTKADIGTPSNFQHIGHVGWDPNTGFDLNNLDPELKNLFDMCGISEAQLKDRETSKVIYDFIEKTGGVEAVKNELRRQAPPPPPPSRGGPPPPPPPPHNSGPPPPPARGRGAPPPPPSRAPTAAPPPPPPSRPSVAVPPPPPNRMYPPPPPALPSSAPSGPPPPPPSVLGVGPVAPPPPPPPPPPPGPPPPPGLPSDGDHQVPTTAGNKAALLDQIREGAQLKKVEQNSRPVSCSGRDALLDQIRQGIQLKSVADGQESTPPTPAPTSGIVGALMEVMQKRSKAIHSSDEDEDEDDEEDFEDDDEWED [WASL]”, the thermal stability score with HeLa Kyoto [1] (setting [5]) turned out to be 0.0343; in the data set with HeLa Kyoto [1] (cell cycle stage: mitosis) it was 1.24. In addition, the melting temperature turned out to be 50.7 °C in the data set with HeLa Kyoto [2] (cell cycle stage: G1/S) and 51.3 °C in the data set on HeLa Kyoto [2] (cell cycle stage: mitosis). Also, in the data set with HeLa Kyoto [3], the “solubility in G1/S (log2)” value amounted to 0.303. Besides, the “solubility change mitosis (log2)” value in the data set with HeLa Kyoto [4] was -0.121.
With “MSTAAVPELKQISRVEAMRLGPGWSHSCHAMLYAANPGQLFGRIPMRFSVLMQMRFDGLLGFPGGFVDRRFWSLEDGLNRVLGLGLGCLRLTEADYLSSHLTEGPHRVVAHLYARQLTLEQLHAVEISAVHSRDHGLEVLGLVRVPLYTQKDRVGGFPNFLSNAFVSTAKCQLLFALKVLNMMPEEKLVEALAAATEKQKKALEKLLPASS [NUDT16L1]”, the thermal stability score is -0.0688 in the data set on HeLa Kyoto [1] (setting [5]) and -2.32 with HeLa Kyoto [1] (cell cycle stage: mitosis). The melting temperature in the data set with HeLa Kyoto [2] (cell cycle stage: G1/S) amounted to 52 °C; with HeLa Kyoto [2] (cell cycle stage: mitosis), 52.3 °C. The “solubility in G1/S (log2)” value in the data set with HeLa Kyoto [3] is -0.521. Besides, the “solubility change mitosis (log2)” value in the data set on HeLa Kyoto [4] worked out at 0.104.

The values are drawn from the supplement of paper PMC5998384.
